Laboratory results reported in paper PMC3438448.

What was measured:
[1] = target: GST-dynein_(331 kDa) (S. cerevisiae) (UniProt P36022)
[2] = target: GST-dynein_(331 kDa) (S. cerevisiae) (UniProt P36022); remark: listed apart in the source

Sequence of GST-dynein_(331 kDa) (S. cerevisiae) (P36022 whole entry): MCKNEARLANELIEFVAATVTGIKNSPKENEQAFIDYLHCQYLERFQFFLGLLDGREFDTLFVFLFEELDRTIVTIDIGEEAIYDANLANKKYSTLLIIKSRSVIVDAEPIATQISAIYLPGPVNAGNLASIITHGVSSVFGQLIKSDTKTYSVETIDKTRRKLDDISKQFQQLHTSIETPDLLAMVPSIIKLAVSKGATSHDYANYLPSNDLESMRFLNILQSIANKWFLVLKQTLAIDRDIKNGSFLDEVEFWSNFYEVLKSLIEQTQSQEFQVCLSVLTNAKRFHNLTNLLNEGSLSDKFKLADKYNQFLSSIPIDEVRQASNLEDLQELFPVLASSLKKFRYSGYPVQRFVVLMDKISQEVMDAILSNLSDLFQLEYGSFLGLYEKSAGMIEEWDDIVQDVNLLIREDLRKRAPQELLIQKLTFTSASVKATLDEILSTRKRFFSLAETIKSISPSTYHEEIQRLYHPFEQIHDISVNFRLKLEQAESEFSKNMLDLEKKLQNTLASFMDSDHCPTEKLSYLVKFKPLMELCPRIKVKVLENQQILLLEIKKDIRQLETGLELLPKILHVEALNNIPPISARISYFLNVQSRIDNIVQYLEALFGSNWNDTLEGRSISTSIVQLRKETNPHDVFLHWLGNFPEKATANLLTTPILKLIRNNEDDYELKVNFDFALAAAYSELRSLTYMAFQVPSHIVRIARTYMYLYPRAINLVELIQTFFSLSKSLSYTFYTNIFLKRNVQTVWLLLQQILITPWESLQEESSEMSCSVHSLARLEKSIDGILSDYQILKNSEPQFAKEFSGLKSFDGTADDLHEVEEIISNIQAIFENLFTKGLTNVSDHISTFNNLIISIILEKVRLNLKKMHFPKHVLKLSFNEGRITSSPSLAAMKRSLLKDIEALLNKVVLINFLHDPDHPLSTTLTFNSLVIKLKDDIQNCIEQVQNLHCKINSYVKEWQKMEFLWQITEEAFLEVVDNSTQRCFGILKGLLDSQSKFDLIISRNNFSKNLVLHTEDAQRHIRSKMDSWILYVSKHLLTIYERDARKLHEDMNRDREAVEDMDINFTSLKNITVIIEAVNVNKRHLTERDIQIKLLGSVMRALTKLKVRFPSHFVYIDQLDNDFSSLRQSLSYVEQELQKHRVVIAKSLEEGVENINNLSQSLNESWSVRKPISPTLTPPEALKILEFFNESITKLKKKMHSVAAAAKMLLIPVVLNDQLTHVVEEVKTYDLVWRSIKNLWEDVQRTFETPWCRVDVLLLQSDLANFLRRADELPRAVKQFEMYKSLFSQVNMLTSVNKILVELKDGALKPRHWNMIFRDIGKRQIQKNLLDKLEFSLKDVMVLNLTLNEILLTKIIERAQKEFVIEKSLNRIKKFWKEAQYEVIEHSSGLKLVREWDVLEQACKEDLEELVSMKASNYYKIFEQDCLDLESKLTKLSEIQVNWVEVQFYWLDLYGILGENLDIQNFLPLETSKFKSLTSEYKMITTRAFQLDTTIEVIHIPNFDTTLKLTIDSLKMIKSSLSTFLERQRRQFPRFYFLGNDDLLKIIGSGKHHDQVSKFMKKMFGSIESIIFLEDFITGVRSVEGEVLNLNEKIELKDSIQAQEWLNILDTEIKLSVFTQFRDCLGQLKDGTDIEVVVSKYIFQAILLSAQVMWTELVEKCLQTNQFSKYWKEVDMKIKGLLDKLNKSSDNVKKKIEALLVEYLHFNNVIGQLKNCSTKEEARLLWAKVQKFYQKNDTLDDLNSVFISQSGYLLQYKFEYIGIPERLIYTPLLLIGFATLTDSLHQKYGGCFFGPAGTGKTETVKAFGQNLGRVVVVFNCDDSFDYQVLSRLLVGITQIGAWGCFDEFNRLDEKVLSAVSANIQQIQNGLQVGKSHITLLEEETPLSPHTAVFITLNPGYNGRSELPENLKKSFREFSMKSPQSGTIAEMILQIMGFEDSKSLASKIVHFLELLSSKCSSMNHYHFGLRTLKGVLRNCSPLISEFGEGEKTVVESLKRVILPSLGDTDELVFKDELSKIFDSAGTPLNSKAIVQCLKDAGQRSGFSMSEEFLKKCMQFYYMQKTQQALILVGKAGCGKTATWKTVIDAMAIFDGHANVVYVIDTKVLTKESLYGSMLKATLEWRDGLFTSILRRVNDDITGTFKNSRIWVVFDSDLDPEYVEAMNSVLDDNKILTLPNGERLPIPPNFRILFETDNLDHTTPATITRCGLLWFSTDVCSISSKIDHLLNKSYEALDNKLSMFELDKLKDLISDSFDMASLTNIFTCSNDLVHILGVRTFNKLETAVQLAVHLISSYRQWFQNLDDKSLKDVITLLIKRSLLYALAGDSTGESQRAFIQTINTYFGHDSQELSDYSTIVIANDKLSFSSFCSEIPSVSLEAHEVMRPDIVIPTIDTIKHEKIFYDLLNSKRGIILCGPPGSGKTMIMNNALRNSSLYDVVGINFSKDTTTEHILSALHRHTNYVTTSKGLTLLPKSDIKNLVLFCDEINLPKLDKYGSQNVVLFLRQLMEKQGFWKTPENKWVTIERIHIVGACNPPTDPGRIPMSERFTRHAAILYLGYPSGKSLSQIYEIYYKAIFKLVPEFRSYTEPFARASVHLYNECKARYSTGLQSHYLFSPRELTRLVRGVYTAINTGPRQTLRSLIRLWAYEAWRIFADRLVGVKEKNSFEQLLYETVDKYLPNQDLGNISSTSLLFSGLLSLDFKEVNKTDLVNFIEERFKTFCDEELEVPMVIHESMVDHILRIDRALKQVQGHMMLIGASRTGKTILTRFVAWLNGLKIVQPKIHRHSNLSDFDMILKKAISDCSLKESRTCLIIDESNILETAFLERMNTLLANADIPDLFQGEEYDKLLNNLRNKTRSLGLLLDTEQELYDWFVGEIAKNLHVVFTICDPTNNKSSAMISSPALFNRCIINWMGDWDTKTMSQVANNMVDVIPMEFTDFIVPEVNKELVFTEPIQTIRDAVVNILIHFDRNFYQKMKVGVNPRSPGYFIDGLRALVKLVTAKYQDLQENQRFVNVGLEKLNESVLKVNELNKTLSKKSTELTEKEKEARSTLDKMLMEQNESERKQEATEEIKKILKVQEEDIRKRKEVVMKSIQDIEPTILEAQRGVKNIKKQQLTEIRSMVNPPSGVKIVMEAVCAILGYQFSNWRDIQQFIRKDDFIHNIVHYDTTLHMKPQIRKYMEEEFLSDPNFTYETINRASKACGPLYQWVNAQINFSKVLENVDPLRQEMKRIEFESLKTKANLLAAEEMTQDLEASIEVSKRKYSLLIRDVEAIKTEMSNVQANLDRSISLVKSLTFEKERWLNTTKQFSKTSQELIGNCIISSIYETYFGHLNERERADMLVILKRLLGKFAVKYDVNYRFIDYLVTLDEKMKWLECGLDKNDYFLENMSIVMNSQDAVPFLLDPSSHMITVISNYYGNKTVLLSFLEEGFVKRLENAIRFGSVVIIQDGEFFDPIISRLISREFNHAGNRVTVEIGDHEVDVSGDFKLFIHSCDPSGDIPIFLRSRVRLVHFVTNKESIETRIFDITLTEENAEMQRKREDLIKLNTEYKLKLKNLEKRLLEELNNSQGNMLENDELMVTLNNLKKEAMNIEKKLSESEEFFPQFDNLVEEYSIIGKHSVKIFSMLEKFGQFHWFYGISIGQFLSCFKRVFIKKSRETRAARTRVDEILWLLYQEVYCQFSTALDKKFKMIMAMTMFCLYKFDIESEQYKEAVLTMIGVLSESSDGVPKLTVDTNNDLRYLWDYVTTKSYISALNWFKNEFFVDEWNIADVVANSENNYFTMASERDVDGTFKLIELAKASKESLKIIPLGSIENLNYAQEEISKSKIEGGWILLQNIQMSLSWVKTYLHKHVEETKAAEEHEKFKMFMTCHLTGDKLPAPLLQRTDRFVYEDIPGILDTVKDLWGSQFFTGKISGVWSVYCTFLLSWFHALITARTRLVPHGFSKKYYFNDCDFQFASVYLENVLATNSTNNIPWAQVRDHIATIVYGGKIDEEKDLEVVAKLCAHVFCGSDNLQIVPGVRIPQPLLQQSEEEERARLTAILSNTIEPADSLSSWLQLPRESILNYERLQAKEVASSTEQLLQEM

B1: Lis1 (S. cerevisiae Pac1) (natural protein)
chain: MTNWQQQLPLTDTQKNELDKSVLRYLNWNYKQTVRHEHAQDYESVRHAIVTLSGFLLQESVDRQEFISNNDTSNESMVDIDELLLPKKWNSIVRLQKKIIELEQNTETLVSQIKDLNTQVSELAQFKPTTSNGTSAHNVLKWIPRNLPSCLINVESSVTSVKLHPNLPIVFVATDHGKLYAFDLFNYTIPLASLQSHTKAITSMDVLFTNYTNSSKKNYLVIVTASKDLQIHVFKWVSEECKFQQIRSLLGHEHIVSAVKIWQKNNDVHIASCSRDQTVKIWDFHNGWSLKTFQPHSQWVRSIDVLGDYIISGSHDTTLRLTHWPSGNGLSVGTGHEFPIEKVKFIHFIEDSPEIRFRTPSTDRYKNWGMQYCVSASRDRTIKIWEIPLPTLMAHRAPIPNPTDSNFRCVLTLKGHLSWVRDISIRGQYLFSCADDKSVRCWDLNTGQCLHVWEKLHTGFVNCLDLDVDFDSNVTPRQMMVTGGLDCKSNVFMR
- K1/2: Lis1 concentration for half-maximal velocity reduction (experiment with the AAA4 mutants) [1]: 15.7 nM
- K1/2: Lis1 concentration for half-maximal reduction of single-molecule GST-dynein (331 kDa) velocity [2]: 15.3 nM
